Measurements reported in the supplement of paper PMC9732359.
± gives the uncertainty stated by the source.

Experiment: protein stability index of a GFP-peptide fusion (yeast GPS) (PSI 1-4); higher = more stable; sorted into four equal gates, so the index is relative within each strain
In short: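 Each library plasmid carries Cherry plus GFP with a tiled 17-residue yeast protein peptide fused downstream, and the pooled library was carried in yeast. Mid-log cultures in leucine-free medium were sorted into four equal gates by GFP/Cherry ratio. Reads from Illumina sequencing of PCR-amplified plasmids from each gate were assigned to strains by barcodes. Per peptide, the protein stability index was computed as the summed products of gate read frequency and gate number.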

| Sequence | protein stability index (doa10∆) | protein stability index (pdr5∆) | protein stability index (san1∆) | protein stability index (ubr1∆) |
| --- | --- | --- | --- | --- |
| LKTRYVGRQDPKKHLSE [RPN11] | 3.08 ± 0.087 | 3.11 ± 0.18 | 3.3 ± 0.078 | 3.26 ± 0.12 |
| SIMAVTFKDGVILGADS [PRE3] | 1.66 ± 0.1 | 2.61 ± 0.094 | 2.94 ± 0.086 | 2.59 ± 0.14 |
| SSNIAGTNPLSSDGAYT [SSN2] | 3.04 ± 0.13 | 2.73 ± 0.17 | 3.03 ± 0.062 | 3.33 ± 0.12 |
| FLERFDFYTRHHFTCEI [ITC1] | – | 2.26 ± 0.097 | 2.31 ± 0.16 | 2.61 ± 0.11 |
| CRSCPYEFPIEGIEIYD [RPC11] | 1.73 ± 0.078 | 2.32 ± 0.11 | 1.85 ± 0.11 | 2.08 ± 0.093 |
| FSKQCLISNAIYGKKTM [ECM29] | 1.15 ± 0.098 | 1.95 ± 0.077 | 1.63 ± 0.14 | 1.82 ± 0.067 |
| SVSMLLQYYILEYMNTA [RRI2] | 2.22 ± 0.079 | 2.34 ± 0.089 | 2.93 ± 0.086 | 2.19 ± 0.055 |
| SAGNDKMVKAWNLNQFQ [ASC1] | 2.46 ± 0.044 | 2.38 ± 0.054 | 2.15 ± 0.065 | 2.36 ± 0.041 |
| LDEVDAALDLSHTQNIG [SMC2] | 3.07 ± 0.17 | 3.21 ± 0.1 | 3.02 ± 0.11 | 3.12 ± 0.067 |
| SMGSILLSFVLGVVFGR [YML031W/NDC1] | 2.39 ± 0.046 | 2.13 ± 0.043 | 2.56 ± 0.055 | 2.64 ± 0.059 |
| LKEQELVLYDAENDVIE [BRR2] | 3.24 ± 0.16 | 2.9 ± 0.16 | 2.99 ± 0.11 | 2.74 ± 0.11 |
| LQCISQINQGVPSAKPL [SNF11] | 2.98 ± 0.092 | 1.95 ± 0.081 | 2.5 ± 0.083 | 2.41 ± 0.074 |
| ALNKISKYYPGVIIKVE [SNU114] | 2.04 ± 0.057 | 1.53 ± 0.07 | 1.9 ± 0.085 | 2.33 ± 0.063 |
| NIERKQTRKEYNTSILE [SIN4] | 3.11 ± 0.13 | 2.94 ± 0.062 | 3.05 ± 0.081 | 3.23 ± 0.082 |
| AILQEKILSILNRSHFA [ECM29] | 1.87 ± 0.05 | 2.15 ± 0.052 | 2.27 ± 0.054 | 2.35 ± 0.051 |
| RRMGILKKILDQCKKQR [RPO31] | 1.63 ± 0.16 | 1.7 ± 0.29 | 1.61 ± 0.23 | 1.9 ± 0.098 |
| DLTQLLEKERSILDDIK [SMC4] | 3.22 ± 0.14 | 2.98 ± 0.08 | 2.66 ± 0.13 | 3.16 ± 0.043 |
| SQVVETHKVTDIYSHEY [YMR129W/POM152] | 2.75 ± 0.083 | 2.77 ± 0.089 | 2.68 ± 0.073 | 2.83 ± 0.15 |
| KGLKENDVAVEKTGKSA [BRR2] | 3.03 ± 0.15 | – | 2.73 ± 0.21 | – |
| YFKLSITSFDQDVDDAH [POP8] | 1.78 ± 0.05 | 1.95 ± 0.075 | 1.78 ± 0.095 | 2.25 ± 0.055 |
| YSMISLQNCCIIDVGTH [ARP9] | 1.75 ± 0.085 | 1.41 ± 0.067 | 1.2 ± 0.15 | 1.33 ± 0.083 |
| KKNDMNTSAKNKNGENK [SIR4] | 2.59 ± 0.06 | 2.69 ± 0.061 | 3.03 ± 0.054 | 3.12 ± 0.066 |
| FKFSGTVSSDVFKLNPS [YLR335W/NUP2] | 3 ± 0.29 | – | – | – |
| RDYQRINKNSKIALREY [POP4] | 2.77 ± 0.081 | 2.29 ± 0.053 | 2.69 ± 0.076 | 2.73 ± 0.063 |
| APHDSEATLLTNSNNGS [SNF5] | 3.05 ± 0.065 | 2.85 ± 0.061 | 2.91 ± 0.045 | 2.97 ± 0.043 |
| SQSACREMALCRELHNK [SSN3] | 2.42 ± 0.089 | 2.38 ± 0.073 | 2.55 ± 0.11 | 2.8 ± 0.067 |
| KFPPPTPLLENISISTS [BRR2] | 1.83 ± 0.054 | 1.84 ± 0.056 | 1.63 ± 0.094 | 1.68 ± 0.045 |
| IKYEFNGIPLKSKERSS [YMR129W/POM152] | 2.39 ± 0.11 | 1.24 ± 0.057 | 1.52 ± 0.26 | 2.98 ± 0.16 |

| Sequence | protein stability index (doa10∆) | protein stability index (pdr5∆) | protein stability index (san1∆) | protein stability index (ubr1∆) |
| --- | --- | --- | --- | --- |
| LSEPLIKIGIRVMKSLS [YCG1] | 1.59 ± 0.066 | 1.98 ± 0.052 | 1.74 ± 0.066 | 1.73 ± 0.06 |
| SLSEFARRRQPTDQNNQ [SNF2] | 2.89 ± 0.11 | 3.12 ± 0.13 | 3.1 ± 0.067 | 2.87 ± 0.1 |
| SGKSNFFAAIRFVLSDD [SMC3] | 3.02 ± 0.11 | 3.36 ± 0.096 | 3.38 ± 0.08 | 3.22 ± 0.052 |
| MDDEEWRSKRIEQLFPV [RPC53] | 3.24 ± 0.085 | 2.31 ± 0.055 | 2.89 ± 0.049 | 2.37 ± 0.041 |
| PFTDITVEGISKLLREH [RPB2] | 2.27 ± 0.076 | 2.4 ± 0.079 | 2.51 ± 0.077 | 2.42 ± 0.067 |
| ALKGPVRDKLDEYQAAV [DPB4] | 3.31 ± 0.072 | 3.29 ± 0.05 | 3.2 ± 0.052 | 3.17 ± 0.064 |
| QKSPKIRDPLTQTGLLQ [RPC82] | 1.81 ± 0.069 | 1.74 ± 0.041 | 2.02 ± 0.12 | 1.91 ± 0.046 |
| EPFNAGIKYHATPPLKR [SMC1] | 3.05 ± 0.071 | 3.12 ± 0.071 | 2.79 ± 0.062 | 2.97 ± 0.045 |
| AQDEEIHKQIVIEMKRC [UBP6] | – | – | 3.26 ± 0.066 | 3.2 ± 0.14 |
| IQTKEQVSINSNKILVY [YIL149C/MLP2] | 2.21 ± 0.076 | 2.75 ± 0.17 | 1.85 ± 0.21 | 2.96 ± 0.15 |
| VRTSATFRLPKTLKLAR [RPL25] | 2.84 ± 0.1 | 2.35 ± 0.12 | 1.74 ± 0.26 | 2.72 ± 0.14 |
| FAFWNLLVKFIKFFWNN [YLR018C/POM34] | 2.13 ± 0.23 | 2 ± 0.076 | 1.7 ± 0.13 | 1.36 ± 0.24 |
| QNSKEKNGLGLNFSTTA [MED2] | 2.9 ± 0.11 | 3.13 ± 0.064 | 2.94 ± 0.056 | 2.99 ± 0.089 |
| VTLNKYCSGNIYDFHKM [YJL039C/NUP192] | 2.7 ± 0.044 | 2.81 ± 0.051 | 2.91 ± 0.04 | 2.78 ± 0.041 |
| TILQHLSEAWRCWKANI [PRP8] | 3.33 ± 0.081 | 3.36 ± 0.083 | 3.5 ± 0.047 | 3.32 ± 0.068 |
| MSASNANDFQLTIVTCK [SRB8] | 2.33 ± 0.044 | 2.41 ± 0.037 | 2.42 ± 0.043 | 2.03 ± 0.031 |
| SDREMAALIASKVYYNL [RPN2] | 1.91 ± 0.06 | 1.83 ± 0.056 | 1.5 ± 0.055 | 1.7 ± 0.045 |
| EQVAEEAAAAEEGEEEE [RPS0B] | – | 3.33 ± 0.26 | – | – |
| NERLEINQEKPVKLDEN [SIR4] | 3.19 ± 0.17 | 3.05 ± 0.12 | 3.44 ± 0.086 | 3.3 ± 0.12 |
| KKVKSASKKSGGDVVKF [SMC4] | 3.09 ± 0.15 | 3.68 ± 0.15 | 2.89 ± 0.21 | 3.12 ± 0.16 |
| IRRYCDVVAHRQLAGAI [DIS3] | 1.91 ± 0.077 | 2.2 ± 0.065 | 1.99 ± 0.097 | 2.18 ± 0.1 |
| DLKASQRVCLRSDSYML [RPT6] | 2.92 ± 0.1 | 3.08 ± 0.077 | 2.92 ± 0.075 | 2.82 ± 0.051 |
| NKGWKLQSLNESKDLLR [SRB4] | 2.81 ± 0.13 | 2.57 ± 0.1 | 2.32 ± 0.11 | 2.93 ± 0.15 |
| FGKLAFPTRLGQGYRKV [YJL039C/NUP192] | 2.98 ± 0.18 | 1.7 ± 0.1 | 1.54 ± 0.18 | 1.62 ± 0.077 |
| GTSKYLINGHRAPQQSV [SMC2] | 2.13 ± 0.054 | 2.36 ± 0.047 | 2.27 ± 0.076 | 2.22 ± 0.052 |
| SNIPTLIEKLQGFSKDT [YDL116W/NUP84] | 3.22 ± 0.1 | 3.23 ± 0.088 | 3.01 ± 0.05 | 3.17 ± 0.073 |
| NNVDNKYKSGGKFSFSP [SSN2] | 2.23 ± 0.054 | 2.37 ± 0.044 | 2.63 ± 0.064 | 2.17 ± 0.038 |
